Measurements taken from doi:10.1101/2025.08.13.670189.

Key:
Test in all cases: EMSA
[1] = test system: LigR2 (Pseudomonas putida KT2440)
[2] = test system: LigR1 (Pseudomonas putida KT2440)
[3] = target: T1, LigR1 (Pseudomonas putida KT2440) (UniProt Q88JP0)
T1 sequence: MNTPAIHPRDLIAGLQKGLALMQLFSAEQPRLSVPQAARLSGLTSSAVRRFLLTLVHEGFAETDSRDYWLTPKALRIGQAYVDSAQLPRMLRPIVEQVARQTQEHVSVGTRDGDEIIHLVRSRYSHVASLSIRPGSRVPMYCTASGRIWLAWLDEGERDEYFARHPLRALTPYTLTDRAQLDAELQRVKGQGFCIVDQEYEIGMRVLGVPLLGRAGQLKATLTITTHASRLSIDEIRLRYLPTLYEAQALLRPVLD

[4] = target: T2, LigR2 (Pseudomonas putida KT2440) (UniProt Q88JP8)
T2 sequence: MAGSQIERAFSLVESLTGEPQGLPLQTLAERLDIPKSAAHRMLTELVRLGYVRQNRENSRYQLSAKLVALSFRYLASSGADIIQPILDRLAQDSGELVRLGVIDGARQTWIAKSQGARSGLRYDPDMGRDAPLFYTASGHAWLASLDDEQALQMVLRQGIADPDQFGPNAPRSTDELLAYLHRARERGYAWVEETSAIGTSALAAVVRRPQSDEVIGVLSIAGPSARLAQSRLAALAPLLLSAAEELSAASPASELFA

Row | Substance | Kd [1] [nM] | Kd [2] [nM] | binding [3] | Kd [4] [nM]
1 | lig2 intergenic region probe | 150 |  |  | 
2 | lig1 intergenic region probe | 21600 | 220 |  | 
3 | GGTAATGCTGCCGGCCCATGATGCCGGCGCCAATCAAGGCAATACGAAGGGGTGCGTTCAACAGCCTGTCCTCTTGTCATTGTTGTTATGAAATTCTGAAACCGGGTTCCAAAATTCATACTCGACAATTTAGAACCAAGTTCAGCTTTTCAGAAGAACGGGCGCAACAGACTGTGCGGTAATCGACCGGAATATTCCCTCAGGCAAACAGCTCGCTGGCGGGACTGGCCGCCGACAGCTCTTCTGC (double strand) [lig2 intergenic region probe] |  |  | no binding | 150
